Patent US20120071394A1 (ALLIGATOR BIOSCIENCE, published 2012)

Molecular target: T1, Wild-type CHIPS1-121 (Chemotaxis Inhibitory Protein of Staphylococcus aureus) (Staphylococcus aureus, UniProt A6QIG7 29-149)
T1 construct: His tag cleaved off with enterokinase; also called CHIPSWT
Assay: flow cytometry of gated blood neutrophils after iv CHIPS, stained with rabbit anti-CHIPS IgG and FITC goat anti-rabbit; the staining does not separate C5aR-bound from FPR-bound CHIPS

| Binder | binding result |
| --- | --- |
| human C5a receptor (C5aR) (receptor, whole, on cells; also called CD88) MDSFNYTTPDYGHYDDKDTLDLNTPVDKTSNTLRVPDILALVIFAVVFLVGVLGNALVVWVTAFEAKRTINAIWFLNLAVADFLSCLALPILFTSIVQHHHWPFGGAACSILPSLILLNMYASILLLATISADRFLLVFKPIWCQNFRGAGLAWIACAVAWGLALLLTIPSFLYRVVREEYFPPKVLCGVDYSHDKRRERAVAIVRLVLGFLWPLLTLTICYTFILLRTWSRRATRSTKTLKVVVAVVASFFIFWLPYQVTGIMMSFLEPSSPTFLLLKKLDSLCVSFAYINCCINPIIYVVAGQGFQGRLRKSLPSLLRNVLTEESVVRESKSFTRSTVDTMAQKTQAV | binds |
| formylated peptide receptor (FPR) (receptor, whole, on cells) METNSSLPTNISGGTPAVSAGYLFLDIITYLVFAVTFVLGVLGNGLVIWVAGFRMTHTVTTISYLNLAVADFCFTSTLPFFMVRKAMGGHWPFGWFLCKFVFTIVDINLFGSVFLIALIALDRCVCVLHPVWTQNHRTVSLAKKVIIGPWVMALLLTLPVIIRVTTVPGKTGTVACTFNFSPWTNDPKERINVAVAMLTVRGIIRFIIGFSAPMSIVAVSYGLIATKIHKQGLIKSSRPLRVLSFVAAAFFLCWSPYQVVALIATVRIRELLQGMYKEIGIAVDVTSALAFFNSCLNPMLYVFMGQDFRERLIHALPASLERALTEDSTQTSDTATNSTLPSAEVELQAK | binds |
